The record followed here is the supplement of paper PMC12042874.

± gives the uncertainty stated by the source.

A short description of the series: amyloid nucleation score (Sup35N fusion, yeast selection) (log enrichment); library NNK3; higher = more nucleation; inactive = no reads after selection. Summed up: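 Plasmid inserts were Illumina-sequenced at input and output from psi-negative yeast expressing Sup35N fused to peptides of 20 random codons. The yeast were induced with 100 μM copper sulfate for 24 hours and grown 7 days at 30°C on medium lacking adenine and uracil, and sequences with under 100 input reads were excluded. Nucleation score is the DiMSum log enrichment of output over input reads, centred on the mode score of non-aggregating sequences.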
With VYFFSGLGTCD, the amyloid nucleation score result is “inactive”.

LCCRQVTFERDVVVRYRRRR: the amyloid nucleation score entry is “inactive”.

On to SSEHFGCEASGVAER, for which the amyloid nucleation score entry is “inactive”.

For PYRGSPACMGDYGNQVGNGS, the amyloid nucleation score result is “inactive”.

Turning to RVIIRKCDYFG, the amyloid nucleation score entry is “inactive”.

On to RCPTPTWSINGPC, for which the amyloid nucleation score result is “inactive”.

In turn, NLCRAI had an amyloid nucleation score of 0.256 ± 0.36.

Turning to HREPTNSNRMEIELRKSVWR, the amyloid nucleation score entry was “inactive”.

As for SLTGRWSTVGRSMGLNTRGG, the amyloid nucleation score entry was “inactive”.

For the substance LNSTTCLTAGWIGNAFIACN, the amyloid nucleation score entry is “inactive”.

Substance NVTDVMRNISMTQLMFYLFA displayed an amyloid nucleation score of 1.74 ± 0.062.

Consider DSDDNVRKNFAS, for which the amyloid nucleation score entry was “inactive”.

As for RTRFVCICTSSNSLLYGRSS, the amyloid nucleation score came out at 0.714 ± 0.25.

On to YTRDRQV, for which the amyloid nucleation score entry was “inactive”.

In the case of IIGSCGGFVSLACSGTLDGV, the amyloid nucleation score was 0.538 ± 0.2.

Take KSRSYPCIEPNV: the amyloid nucleation score entry was “inactive”.

Regarding VFPPEMRVFPLFCW, the amyloid nucleation score result was “inactive”.

Regarding LPSDSGYTGYHVWTLKSTCD, the amyloid nucleation score result was “inactive”.

Turning to RVGISTYLVVSEE, the amyloid nucleation score result was “inactive”.

As to FIQYEHNLPGTARGKCIQC, the amyloid nucleation score entry is “inactive”.

For QVLQKVHG, the amyloid nucleation score result was “inactive”.

Consider EMRKAIRRL, for which the amyloid nucleation score result is “inactive”.

Regarding KMRSSVYFLDYNWNKTLPCL, the amyloid nucleation score was -0.541 ± 1.1.

Consider KVVVMDCWWNNIYCTDQWVI, for which the amyloid nucleation score is -0.021 ± 0.22.

Consider RLPRRSEDIKALRMDIRLYR, for which the amyloid nucleation score result was “inactive”.

Consider CVHNLN, for which the amyloid nucleation score result was “inactive”.

For MFEMS, the amyloid nucleation score entry is “inactive”.

Regarding KVFPFEVEVLFFHGGDMSCG, the amyloid nucleation score was -0.121 ± 0.36.

With RDGHIQMCFIWVKRDNCQVF, the amyloid nucleation score result was “inactive”.

On to FVLKRYRCFLYLVQYDISTL, for which the amyloid nucleation score is -0.326 ± 0.98.

Take DRSLMRS: the amyloid nucleation score entry was “inactive”.

On to RVIATRDDCPFLGW, for which the amyloid nucleation score entry is “inactive”.

In the case of TNIYKARL, the amyloid nucleation score result is “inactive”.

Turning to KRRMRGALRVRVNSTHCWYV, the amyloid nucleation score entry was “inactive”.

In the case of IYLLGMYIKACSG, the amyloid nucleation score result is “inactive”.

Turning to LVLVQEKHRSRTAEFDHRLT, the amyloid nucleation score was -0.186 ± 0.94.

On to FFFLWGAP, for which the amyloid nucleation score result is “inactive”.

In the case of HSMLDFFST, the amyloid nucleation score result was “inactive”.

On to PCICMVIQSGLDEYAYHVQR, for which the amyloid nucleation score entry is “inactive”.

Substance RIFLIICKMYYFRNNRLFRM came in with an amyloid nucleation score of -0.508 ± 0.8.

In the case of PNCGFVCMKMCATTDLFVCV, the amyloid nucleation score entry was “inactive”.

Consider TGLNIILLLCFMMSLGES, for which the amyloid nucleation score entry was “inactive”.

On to YCVMNSAINSLRSMAIWSFA, for which the amyloid nucleation score entry was “inactive”.

As to LKGTCFLIPYLVTSGSSLVS, the amyloid nucleation score result is “inactive”.

As for LMYTRGFLWGAWINACMSRG, the amyloid nucleation score was 1.2 ± 0.15.

Consider FVSEFMTSSTYLVPTVHITV, for which the amyloid nucleation score result was “inactive”.

As to FIKLKGL, the amyloid nucleation score result is “inactive”.

Regarding NMMSGRSQSVINFVYVDFHP, the amyloid nucleation score was -0.183 ± 0.66.

ARTIELMECNISVNSIVWQG registered an amyloid nucleation score of 1.98 ± 0.089.

Turning to GVFVEIRILYKGKWYTCMSK, the amyloid nucleation score entry is “inactive”.

ANICVFFSLDWFCPLFLSHK yielded an amyloid nucleation score of 2.34 ± 0.079.

With AMQIYTLVMGSPRDFDYWKV, the amyloid nucleation score was 1.14 ± 0.11.

Take EEFSGNLCDFRLQPRSCCEN: the amyloid nucleation score entry was “inactive”.

As for RCSCCCCNALANDRRVCMVE, the amyloid nucleation score entry is “inactive”.

For YWMLNAHRNW, the amyloid nucleation score entry is “inactive”.

Substance SSCRTRC returned an amyloid nucleation score of -0.405 ± 0.76.

For ALSGSGLRLTPMKQ, the amyloid nucleation score result was “inactive”.

Take CFDTSLSVPGPMCYWKTKHG: the amyloid nucleation score entry is “inactive”.

With FGHIGQRRSFVIHLMHDGSP, the amyloid nucleation score result was “inactive”.

On to TNANFATDSHFLVITE, for which the amyloid nucleation score entry was “inactive”.

As to SYEHFRWLYHVFKVARFFFL, the amyloid nucleation score entry was “inactive”.

On to DDSMHDGLRVTRRVCKRGSF, for which the amyloid nucleation score entry is “inactive”.

VQWCQDAFVIV: the amyloid nucleation score entry was “inactive”.

As for AGCIGFNVFEH, the amyloid nucleation score result was “inactive”.

Take SLAAIYSFVYFSSDVIRSHY: the amyloid nucleation score worked out at 1.34 ± 0.15.

Turning to FFLIEQFYTYWMGGIMMIQR, the amyloid nucleation score entry is “inactive”.

Consider KYEVCSYFNLCGEGKYRTVV, for which the amyloid nucleation score entry was “inactive”.

Regarding ICRLVLIWVPRSSGGVSSSR, the amyloid nucleation score entry is “inactive”.

Consider YTVRMWKDDVRARRGSQGVW, for which the amyloid nucleation score result was “inactive”.

On to FMGLGLQLRLIHLSRG, for which the amyloid nucleation score result was “inactive”.

As for IIEDLLLHWLGVWVFSKKFA, the amyloid nucleation score result was “inactive”.

For the substance NMWWNGSETNCESRVFEIET, the amyloid nucleation score result was “inactive”.

For the substance RRHAR, the amyloid nucleation score entry is “inactive”.

Take IYSVTMTRHVFFNGFQVQLV: the amyloid nucleation score result was “inactive”.

For DNATARLQTRNEWSMR, the amyloid nucleation score entry is “inactive”.

For the substance STQTLEKNDVWGFLHSYWCR, the amyloid nucleation score was 0.128 ± 0.41.

On to TYMFMVAYNVSTRPRKLLNC, for which the amyloid nucleation score result was “inactive”.

IQISYNWW gave an amyloid nucleation score of 0.75 ± 0.3.

For the substance GNCGRSGINCHMTGTSVVRC, the amyloid nucleation score entry was “inactive”.

As for YSVAVREIVGMNSKLLCDVN, the amyloid nucleation score result is “inactive”.

The substance VVHNYEITWYHL had an amyloid nucleation score of 1.99 ± 0.074.

As for LLLWGTHHSMIYYDGCLIFI, the amyloid nucleation score entry was “inactive”.

Take YASVRVGMPSCDECGMFCLE: the amyloid nucleation score entry is “inactive”.

For RRWSLRWNHLM, the amyloid nucleation score entry is “inactive”.

Turning to QQGFSVLERCISEV, the amyloid nucleation score entry is “inactive”.

Turning to SRFQWLWKMCSNDG, the amyloid nucleation score entry was “inactive”.

For the substance RVCSW, the amyloid nucleation score entry is “inactive”.

As to IFIQLSDLMQSKVAHECGWC, the amyloid nucleation score entry is “inactive”.

On to FGIWCTIPWLLFRYSVDMFM, for which the amyloid nucleation score entry was “inactive”.

Regarding DMATVIVSKLFTVVVWYLFW, the amyloid nucleation score entry was “inactive”.

As to YPRDWGYALRLYYVEKKLR, the amyloid nucleation score result was “inactive”.

With RFGITLVFEYPAVEFVDTTI, the amyloid nucleation score result was “inactive”.

For SLEVINVVRININNQEYIYL, the amyloid nucleation score is 0.276 ± 0.23.

With PRYRSLWFAKHMLAVLGSKW, the amyloid nucleation score entry is “inactive”.

Turning to YGGNSIY, the amyloid nucleation score entry was “inactive”.

Substance YRFSRFKMRAVPTMILKLNV had an amyloid nucleation score of -0.056 ± 0.35.

Take LNTDESWGFMCLTKFE: the amyloid nucleation score result was “inactive”.

As to HKRLMFDMYHPIWMFYCSAC, the amyloid nucleation score result is “inactive”.

For the substance YRIGCRF, the amyloid nucleation score result is “inactive”.

With IVRMNQCSMGCLRVAMSSS, the amyloid nucleation score entry is “inactive”.

With YIAVG, the amyloid nucleation score was -0.483 ± 0.75.

With TIAVLMLIDCGSRGPFRHLT, the amyloid nucleation score entry was “inactive”.

TCTAFQMHI showed an amyloid nucleation score of 0.007 ± 0.68.

VYYNSVNVLSVSGCRLDGLN gave an amyloid nucleation score of 1.66 ± 0.11.

In turn, CRHINFMSIIFSFGDSSYRF gave an amyloid nucleation score of 2.2 ± 0.08.

The substance VITADLRSMIWDVPKNVY had an amyloid nucleation score of 0.92 ± 0.16.

As to VNQVVM, the amyloid nucleation score entry is “inactive”.

On to LSVSYTLALTALLRHRERVW, for which the amyloid nucleation score entry was “inactive”.

On to KLQYYVALSAT, for which the amyloid nucleation score entry was “inactive”.

IYSNSLACDRSGFFKASSSQ returned an amyloid nucleation score of -0.998 ± 1.2.

Regarding PGYSHVRLVVSSPPLWTDLA, the amyloid nucleation score result is “inactive”.

For the substance RIRGMFGCPNNR, the amyloid nucleation score result was “inactive”.

For LFGARDVFFER, the amyloid nucleation score entry is “inactive”.

As for FCCINKLDGLGVWETYCSYS, the amyloid nucleation score entry is “inactive”.

In turn, MILLFVVAFILLTEYICWAI returned an amyloid nucleation score of 0.601 ± 0.18.

As for NRYLFLIGSA, the amyloid nucleation score entry was “inactive”.

Turning to PGYSCIRDIQITR, the amyloid nucleation score entry was “inactive”.

As for IALSTDSMPRYLEALRACGC, the amyloid nucleation score entry was “inactive”.

Regarding SEVGMVSLRLFWLWWVTKPK, the amyloid nucleation score entry was “inactive”.

NFFSA yielded an amyloid nucleation score of -0.51 ± 0.73.

Consider CAKMHTCVYSFCTMEWSLTR, for which the amyloid nucleation score entry is “inactive”.

For the substance IDDEIANSSFQVWLKGGFLV, the amyloid nucleation score result is “inactive”.

Consider GDTHESFVGRTVYPDRLESH, for which the amyloid nucleation score entry is “inactive”.

Turning to QSLRRQYLNYIRSIFESMEN, the amyloid nucleation score entry is “inactive”.

Regarding MISWLNQKYHVLNQNFIYG, the amyloid nucleation score entry is “inactive”.

LIISCMQFLVYKKCGFSMRH: the amyloid nucleation score entry is “inactive”.

In the case of INLFTAYAVSL, the amyloid nucleation score entry was “inactive”.

Consider NSLVLTLLNLVGKSLHHFYN, for which the amyloid nucleation score entry is “inactive”.

In turn, KFGHSVKSINLLNATTHVWI showed an amyloid nucleation score of -0.126 ± 0.47.

As to MDSFRRDEYFKSLFVMLYLS, the amyloid nucleation score result was “inactive”.

As for VAMVSGIG, the amyloid nucleation score result is “inactive”.

For the substance AITHRIDS, the amyloid nucleation score entry is “inactive”.
